The values below come from the supplement of paper PMC9732359.

± gives the uncertainty stated by the source.

The nature of the data set: protein stability index of a GFP-peptide fusion (yeast GPS) (PSI 1-4); higher = more stable; sorted into four equal gates, so the index is relative within each strain. In outline:
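The protein stability index combines read frequencies across sorting gates, each weighted by its gate number and then summed. To obtain those frequencies, a pooled yeast library of GFP fusions to tiled 17-residue yeast protein peptides, on a plasmid also expressing Cherry, was grown to mid-log phase in leucine-free medium. The cells were sorted into four equal gates by GFP/Cherry ratio before plasmid amplification by PCR and Illumina sequencing.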

On to VGRLASVVAKQLLNGQK [RPL16A], for which the protein stability index runs as follows: (pdr5∆) 1.89 ± 0.3; (san1∆) 2.99 ± 0.13; (ubr1∆) 1.67 ± 0.2.
In the case of LQNNINNSNNNNIIRIQ [SNF11], the protein stability index (doa10∆) turned out to be 2.94 ± 0.089, the protein stability index (pdr5∆) was found to be 2.57 ± 0.13, the protein stability index (san1∆) was 2.87 ± 0.069 and the protein stability index (ubr1∆) was 3.32 ± 0.089.
For the sequence SPHGLINLNVDDDILII [SRB4], the protein stability index reads like this: (doa10∆) 3.1 ± 0.074; (pdr5∆) 3.2 ± 0.075; (san1∆) 3.11 ± 0.054; (ubr1∆) 3.05 ± 0.045.
Regarding QTSLVRMFEKNVMLNIY [SKI6], the protein stability index amounted to 3.17 ± 0.11 (pdr5∆), 3.29 ± 0.13 (san1∆) and 3.12 ± 0.076 (ubr1∆).
As for YYKKFLIEPLPTESYLQ [BRR2], the protein stability index was found to be 1.85 ± 0.055 (doa10∆), 2.58 ± 0.066 (pdr5∆), 1.78 ± 0.13 (san1∆) and 2.48 ± 0.055 (ubr1∆).
In the same order, the values of ENDVKPISIEAPQFYRY [SWI3] are 2.55 ± 0.038, 2.14 ± 0.039, 2.2 ± 0.055 and 1.95 ± 0.035.
In turn, EKVSSVLSALEGKSVDE [RPP2A] showed a protein stability index (doa10∆) of 2.57 ± 0.077, a protein stability index (pdr5∆) of 2.09 ± 0.049, a protein stability index (san1∆) of 2.16 ± 0.078 and a protein stability index (ubr1∆) of 1.87 ± 0.038.
Regarding QARDNSQVFGVARIYAS [RPS14A], the protein stability index (doa10∆) is 1.9 ± 0.066, the protein stability index (pdr5∆) is 2.12 ± 0.057, the protein stability index (san1∆) stood at 1.84 ± 0.087 and the protein stability index (ubr1∆) is 2.23 ± 0.045.
As for EYIDDHRSGKIVVQLNG [RPS22A], the protein stability index is 3.21 ± 0.23 (doa10∆), 3.28 ± 0.17 (pdr5∆), 2.77 ± 0.13 (san1∆) and 2.47 ± 0.23 (ubr1∆).
As to EEYLDANVFRLENQKDL [MTW1], the protein stability index is, setting by setting: (doa10∆) 3.4 ± 0.081; (pdr5∆) 3.38 ± 0.087; (san1∆) 3.28 ± 0.057; (ubr1∆) 3.3 ± 0.044.
NLDIAKDLIRTDEALFE [MED4] displayed a protein stability index (doa10∆) of 3.44 ± 0.22, a protein stability index (pdr5∆) of 3.29 ± 0.19, a protein stability index (san1∆) of 2.46 ± 0.28 and a protein stability index (ubr1∆) of 3.31 ± 0.24.
With RKIEAETRNGKVKNQGA [YCS4], the protein stability index is, setting by setting: (doa10∆) 2.89 ± 0.14; (pdr5∆) 3.43 ± 0.12; (san1∆) 3.12 ± 0.12; (ubr1∆) 3.22 ± 0.13.
Sequence ATSTKVSVEGVNVEKFN [RPL6A] showed a protein stability index (doa10∆) of 2.88 ± 0.11, a protein stability index (pdr5∆) of 3.4 ± 0.11, a protein stability index (san1∆) of 3.31 ± 0.059 and a protein stability index (ubr1∆) of 3.16 ± 0.1.
As for SNDEKQKAQDVDVSMQD [RPN13], the protein stability index was found to be 3.17 ± 0.091 (doa10∆), 3.27 ± 0.064 (pdr5∆), 3.22 ± 0.041 (san1∆) and 3.31 ± 0.044 (ubr1∆).
On to ISKKLQFSYLSSTLGID [PCI8], for which the protein stability index (doa10∆) came out at 2.08 ± 0.055, the protein stability index (pdr5∆) is 1.67 ± 0.054, the protein stability index (san1∆) came to 1.49 ± 0.097 and the protein stability index (ubr1∆) was determined as 1.63 ± 0.044.
PRGLRSLTTVWAEHLSD [RPL3]: the protein stability index was 2.74 ± 0.12 (doa10∆), 2.83 ± 0.17 (pdr5∆) and 2.72 ± 0.16 (ubr1∆).
Consider ETLENGETRMKMLNEFV [SMC2], for which the protein stability index was 2.87 ± 0.12 (doa10∆), 3.06 ± 0.24 (pdr5∆) and 3.17 ± 0.15 (san1∆).
Regarding ALKTSIQHVGMINGRKL [FAS1], the protein stability index by setting is: (doa10∆) 3.21 ± 0.12; (pdr5∆) 3.21 ± 0.1; (san1∆) 3.25 ± 0.067; (ubr1∆) 3.19 ± 0.083.
Turning to EDEVKVEGPKFTIDAKP [YLR335W/NUP2], the protein stability index was found to be 3.54 ± 0.15 (doa10∆), 3.52 ± 0.2 (pdr5∆) and 3.45 ± 0.071 (san1∆).
Turning to RLAAPHHWLLDKLSGCY [RPS4A], the protein stability index by setting is: (doa10∆) 2.31 ± 0.23; (pdr5∆) 2.2 ± 0.1; (san1∆) 2.26 ± 0.14; (ubr1∆) 2.35 ± 0.15.
QLAIRNDDELNKLLGNV [HTA1]: the protein stability index runs as follows: (doa10∆) 3.31 ± 0.14; (pdr5∆) 3.38 ± 0.071; (san1∆) 3.23 ± 0.064; (ubr1∆) 3.43 ± 0.078.
For the sequence YQTCKNSEYLKRRVTNL [SMC2], the protein stability index is 2.37 ± 0.071 (doa10∆), 2.09 ± 0.079 (pdr5∆), 2.44 ± 0.078 (san1∆) and 2.45 ± 0.073 (ubr1∆).
In the same order, the values of AAASESDVAKQLASFGY [RPL16B] are 2.67 ± 0.032, 2.62 ± 0.028, 2.28 ± 0.037 and 2.356 ± 0.019.
VLFAAYKVEHPFFARFK [RPB11]: the protein stability index stood at 2.71 ± 0.089 (doa10∆), 1.87 ± 0.05 (pdr5∆), 2.18 ± 0.067 (san1∆) and 2.27 ± 0.1 (ubr1∆).
For the sequence TSRIDEEKPGLIITRKA [SMC4], the protein stability index reads like this: (doa10∆) 2.91 ± 0.063; (pdr5∆) 3.07 ± 0.052; (san1∆) 3.07 ± 0.044; (ubr1∆) 3 ± 0.057.
Regarding STTASGTTATGTGLFGQ [YGR119C/NUP57], the protein stability index runs as follows: (doa10∆) 3.18 ± 0.074; (pdr5∆) 3.35 ± 0.067; (san1∆) 3.27 ± 0.068; (ubr1∆) 3.43 ± 0.055.
On to LQGVTYPVLRKLYKKIA [YIL149C/MLP2], for which the protein stability index reads like this: (doa10∆) 1.94 ± 0.093; (pdr5∆) 1.79 ± 0.056; (san1∆) 1.55 ± 0.14; (ubr1∆) 1.83 ± 0.055.
With KKLATRPKCGDCGSALQ [RPL34A], the protein stability index runs as follows: (doa10∆) 2.52 ± 0.12; (pdr5∆) 2.88 ± 0.16; (san1∆) 2.31 ± 0.16; (ubr1∆) 2.89 ± 0.12.
Consider QDVLKGSSASSRKAHGL [POP1], for which the protein stability index was 3.27 ± 0.062 (doa10∆), 3.06 ± 0.064 (pdr5∆), 3.1 ± 0.059 (san1∆) and 3.14 ± 0.067 (ubr1∆).
Turning to ERVWNICLYSSFQKNSL [AAR2], the protein stability index runs as follows: (doa10∆) 1.8 ± 0.059; (pdr5∆) 2.01 ± 0.046; (san1∆) 2.18 ± 0.1; (ubr1∆) 2.02 ± 0.034.
As for STSFKNPRRLEIKDGRS [YMR153W/NUP53], the protein stability index by setting is: (doa10∆) 3.06 ± 0.084; (pdr5∆) 3.06 ± 0.09; (san1∆) 2.83 ± 0.085; (ubr1∆) 3.16 ± 0.041.
Take RNSLETKLTTCKRELAF [YIL149C/MLP2]: the protein stability index is, setting by setting: (doa10∆) 2.09 ± 0.068; (pdr5∆) 1.99 ± 0.077; (san1∆) 1.88 ± 0.09; (ubr1∆) 2.19 ± 0.053.
Regarding PVMADLNGGLQFVPELK [FAS2], the protein stability index was determined as 1.78 ± 0.069 (doa10∆), 2.19 ± 0.076 (pdr5∆), 2.07 ± 0.077 (san1∆) and 2.01 ± 0.056 (ubr1∆).
Take IKEELTKLIISGQLNFE [PCI8]: the protein stability index came to 3.29 ± 0.15 (doa10∆), 3.19 ± 0.15 (pdr5∆), 2.54 ± 0.26 (san1∆) and 2.99 ± 0.088 (ubr1∆).
As for IGIDPPRGVLLYGPPGT [RPT3], the protein stability index is, setting by setting: (doa10∆) 3.04 ± 0.088; (pdr5∆) 2.58 ± 0.1; (san1∆) 2.89 ± 0.081; (ubr1∆) 2.74 ± 0.073.
Regarding AEMEADSLASELTLAEQ [SMC4], the protein stability index (san1∆) amounted to 2.94 ± 0.15 and the protein stability index (ubr1∆) stood at 3.39 ± 0.26.
RMRLRALETENMEIRNL [GRR1]: the protein stability index (doa10∆) turned out to be 3.09 ± 0.069, the protein stability index (pdr5∆) stood at 3.02 ± 0.051, the protein stability index (san1∆) came to 2.78 ± 0.055 and the protein stability index (ubr1∆) turned out to be 3.04 ± 0.041.
